Earlier results on one substance are cited in publication PMC3347567.

pKd: −log10 of the molar value.

This data set has as its target PEDF-R (Homo sapiens) (UniProt Q96AD5).
Chain of UniProt Q96AD5 (Q96AD5 whole entry): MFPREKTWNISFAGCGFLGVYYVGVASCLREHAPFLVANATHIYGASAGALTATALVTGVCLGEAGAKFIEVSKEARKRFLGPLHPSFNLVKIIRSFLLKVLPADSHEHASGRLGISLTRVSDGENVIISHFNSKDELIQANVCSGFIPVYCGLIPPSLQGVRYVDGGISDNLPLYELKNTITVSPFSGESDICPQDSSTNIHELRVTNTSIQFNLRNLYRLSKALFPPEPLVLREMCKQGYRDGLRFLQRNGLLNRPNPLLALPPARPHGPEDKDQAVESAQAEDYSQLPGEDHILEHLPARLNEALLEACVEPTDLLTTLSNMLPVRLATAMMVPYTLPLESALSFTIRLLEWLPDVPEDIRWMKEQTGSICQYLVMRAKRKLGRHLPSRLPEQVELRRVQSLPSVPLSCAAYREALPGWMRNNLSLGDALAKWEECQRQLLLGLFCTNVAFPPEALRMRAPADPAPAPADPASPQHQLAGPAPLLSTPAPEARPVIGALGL

The term pKd denotes −log10 of the Kd, conventionally taken in molar units. In the case of PEDF (from UniProt P36955), the negative-log Kd (pKd) is 8.52.
